Experimental findings from patent publication US20190352359A1 (IMMATICS BIOTECHNOLOGIES, published 2019) are described below.

In one assay the target is T1, HLA-A*24.
T1 construct: Monomers captured on streptavidin plates; also called peptide-receptive MHC molecules; MHC complexes
Put plainly: UV peptide-exchange ELISA (anti-b2m); yield grade ++++ = >75%. In outline:
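Peptides loaded onto HLA-A*24 by UV-induced cleavage of a UV-sensitive peptide and exchange; stabilized complexes, diluted 100-fold, captured on streptavidin and detected with HRP anti-β2m (1 h, 37 °C), TMB, A450. Exchange yield derived against refolded HLA-A*02:01/MLA-001 monomer standards (15-500 ng/ml).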
Background: In an ELISA, binding on a coated surface is turned into a signal by an enzyme label.
SYATPVDLW (also called SYATPVDLW) [CDK6-007]: the peptide exchange yield is over 75%.
As for RWLDGSPVTL (also called RWLDGSPVTL) [CLEC17-005], the peptide exchange yield is over 75%.
In turn, RYSPVKDAW (also called RYSPVKDAW) [KLHDC7B-006] showed a peptide exchange yield of over 75%.
In the case of LYIDKGQYL (also called LYIDKGQYL) [HMCN1-011], the peptide exchange yield is over 75%.
YFCSTKGQLF (also called YFCSTKGQLF) [FCRL2-004] returned a peptide exchange yield of over 75%.
In turn, TYVPSTFLVVL (also called TYVPSTFLVVL) [GABRP-006] displayed a peptide exchange yield of over 75%.
LYAFLGSHF (also called LYAFLGSHF) [KISS1R-003]: the peptide exchange yield is over 75%.
The molecule LYGFFFKI (also called LYGFFFKI) [BTBD16-002] gave a peptide exchange yield of over 75%.
The molecule SYLENSASW (also called SYLENSASW) [DLX5-003] returned a peptide exchange yield of over 75%.
In turn, AYLKLLPMF (also called AYLKLLPMF) [SLC5A4-001] gave a peptide exchange yield of over 75%.
Molecule SYLPTAERL (also called SYLPTAERL) [SYT12-001] came in with a peptide exchange yield of over 75%.
As for KYLSIPTVFF (also called KYLSIPTVFF) [UGT1A3-002], the peptide exchange yield is over 75%.
On the same count and under the same terms, the result for RYLPNPSLNAF (also called RYLPNPSLNAF) [CYP1A1-002] reads over 75%; that for RYTGQWSEW (also called RYTGQWSEW) [IL9R-001], over 75%.
On the same count and under the same terms, the result for VFPLVTPLL (also called VFPLVTPLL) [PTP-042] reads over 75%; that for VLQGEFFLF (also called VLQGEFFLF) [KBTBD8-005], over 75%; that for NYVLVPTMF (also called NYVLVPTMF) [CAPN6-003], over 75%.
Still for that read-out and setting: the value for VYIVPVIVL (also called VYIVPVIVL) [OXTR-002] was over 75%.
NYTRLVLQF (also called NYTRLVLQF) [GABRP-004]: the peptide exchange yield was over 75%.
As for KWFDSHIPRW (also called KWFDSHIPRW) [ERV-002], the peptide exchange yield was over 75%.
Turning to IYYSHENLI (also called IYYSHENLI) [F5-005], the peptide exchange yield was over 75%.
The molecule VYAVSSDRF (also called VYAVSSDRF) [DCX-001] displayed a peptide exchange yield of over 75%.
On the same count and under the same terms, the result for TYINSLAIL (also called TYINSLAIL) [TGM4-003] reads over 75%; that for IYIYPFAHW (also called IYIYPFAHW) [NPFFR2-002], over 75%.
Turning to VYKEDLPQL (also called VYKEDLPQL) [EML-002], the peptide exchange yield was over 75%.
As to IYKDYYRYNF (also called IYKDYYRYNF) [PLA2G2D-001], the peptide exchange yield is over 75%.
TYSKTIALYGF (also called TYSKTIALYGF) [BTBD16-004] returned a peptide exchange yield of over 75%.
Same read-out and setting: the value for IGLSVVHRF (also called IGLSVVHRF) [OR51E2-003] was over 75%.
For YTIERYFTL (also called YTIERYFTL) [GABRP-007], the peptide exchange yield is over 75%.
Molecule TYVPSTFLV (also called TYVPSTFLV) [GABRP-005] had a peptide exchange yield of over 75%.

The target in a further assay is T1, HLA-A*24. The assay is described as follows: UV peptide-exchange ELISA (anti-b2m); yield grade ++ = >20%. The text has this: Candidate peptides for T cell based therapies according to the present invention were further tested for their MHC binding capacity (affinity). The individual peptide-MHC complexes were produced by UV-ligand exchange, where a UV-sensitive peptide is cleaved upon UV-irradiation, and exchanged with the peptide of interest as analyzed. Only peptide candidates that can effectively bind and stabilize the peptide-receptive MHC molecules prevent dissociation of the MHC complexes. To determine the yield of the exchange reaction, an ELISA was performed based on the detection of the light chain (p2m) of stabilized MHC complexes. The assay was performed as generally described in Rodenko et al. (Rodenko et al., 2006)
96 well MAXISorp plates (NUNC) were coated over night with 2 ug/ml streptavidin in PBS at room temperature, washed 4× and blocked for 1 h at 37° C. in 2% BSA containing blocking buffer. Refolded HLA-A*02:01/MLA-001 monomers served as standards, covering the range of 15-500 ng/ml. Peptide-MHC monomers of the UV-exchange reaction were diluted 100-fold in blocking buffer. Samples were incubated for 1 h at 37° C., washed four times, incubated with 2 ug/ml HRP conjugated anti-β2m for 1h at 37° C., washed again and detected with TMB solution that is stopped with […]. Absorption was measured at 450 nm. Candidate peptides that show a high exchange yield (preferably higher than 50%, most preferred higher than 75%) are generally preferred for a generation and production of antibodies or fragments thereof, and/or T cell receptors or fragments thereof, as they show sufficient avidity to the MHC molecules and prevent dissociation of the MHC complexes.
YIANLISCF (also called YIANLISCF) [GLYATL3-001] registered a peptide exchange yield of 20 to 50%.
RRYFGEKVAL (also called RRYFGEKVAL) [ANO7-005] had a peptide exchange yield of 20 to 50%.
On the same count and under the same terms, the value for KYKPVALQCIA (also called KYKPVALQCIA) [HMCN1-009] was 20 to 50%; that for KWFNVRMGFGF (also called KWFNVRMGFGF) [LIN-001] was 20 to 50%.
On to RRVTWNVLF (also called RRVTWNVLF) [BTBD17-003], for which the peptide exchange yield was 20 to 50%.
VFQPNPLF (also called VFQPNPLF) [WISP3-002]: the peptide exchange yield was in the range of 20 to 50%.
The molecule ELMAHPFLL (also called ELMAHPFLL) [CYP4Z-002] showed a peptide exchange yield of 20 to 50%.
Turning to VYVRPRVF (also called VYVRPRVF) [HMCN1-013], the peptide exchange yield lay in the range of 20 to 50%.
Molecule VWSCEGCKAF (also called VWSCEGCKAF) [ESR-001] displayed a peptide exchange yield of 20 to 50%.
Still for that read-out and setting: the result for EYNVFPRTL (also called EYNVFPRTL) [MMP13-004] reads 20 to 50%; that for FLPRAYYRW (also called FLPRAYYRW) [ANO7-001], 20 to 50%; that for RPEKVFVF (also called RPEKVFVF) [COL11A1-005], 20 to 50%.
In the case of ILQAPLSVF (also called ILQAPLSVF) [FCRL5-005], the peptide exchange yield fell in the range of 20 to 50%.
For the molecule IMQGFIRAF (also called IMQGFIRAF) [PAE-002], the peptide exchange yield lay within 20 to 50%.
For the molecule SYFEYRRLL (also called SYFEYRRLL) [LAMC2-019], the peptide exchange yield fell in the range of 20 to 50%.
Molecule SLPGSFIYVF (also called SLPGSFIYVF) [HMCN1-012] gave a peptide exchange yield of 20 to 50%.
With MLPQIPFLLL (also called MLPQIPFLLL) [COL10-001], the peptide exchange yield was 20 to 50%.
Same read-out and setting: the result for IRPDYSFQF (also called IRPDYSFQF) [TRDV3-001] reads 20 to 50%; that for LQPPWTTVF (also called LQPPWTTVF) [FCRL5-006], 20 to 50%.
MHRTWRETF (also called MHRTWRETF) [ANO7-004]: the peptide exchange yield was in the range of 20 to 50%.
IFQHFCEEI (also called IFQHFCEEI) [SMC1B-002] came in with a peptide exchange yield of 20 to 50%.
Molecule YLKSVQLF (also called YLKSVQLF) [RFX8-001] yielded a peptide exchange yield of 20 to 50%.
TYGEEMPEEI (also called TYGEEMPEEI) [DNAH17-004] came in with a peptide exchange yield of 20 to 50%.
Take FMVIAGMPLF (also called FMVIAGMPLF) [SLC6A3-001]: the peptide exchange yield fell in the range of 20 to 50%.
The molecule SIYPHGVTF (also called SIYPHGVTF) [F5-007] had a peptide exchange yield of 20 to 50%.
Same read-out and setting: the value for DYSKQALSL (also called DYSKQALSL) [LAMC2-018] was 20 to 50%; that for LYMRFVNTHF (also called LYMRFVNTHF) [SPINK2-002] was 20 to 50%.
Same read-out and setting: the result for ALFAVCWAPF (also called ALFAVCWAPF) [QRFPR-002] reads 20 to 50%.
AQGSGTVTF (also called AQGSGTVTF) [FCRL3-004]: the peptide exchange yield is 20 to 50%.
